Laboratory results from the supplement of paper PMC7125110.
± gives the standard error. This sample holds only a part of the variants without activity.

B1: glmS ribozyme (parent)
chain: AUAAAAGCGCCAGAACUACAGAAAUGUAGUUGACGAGGAGGAGGUUUAUCGAAUUUUCGGCGGAUGCCUCCAAA

Key:
Settings in all cases: with glucosamine-6-phosphate
[1] = variants of: B1; assay: self-cleavage kobs at 640 uM GlcN6P; higher = faster cleavage; RNA array
Outline: (§1)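 Barcoded glmS ribozyme variants on sequenced MiSeq chips were transcribed in situ by E. coli RNA polymerase and tracked through a hybridised Cy3 probe at 37 °C. Glucosamine-6-phosphate (40 μM to 10 mM) in HEPES/KCl/Mg(OAc)2 buffer was flowed in, and tiles were imaged over ~14 h. Signals were normalised to baseline and to non-cleaving reference variants; per-tile medians were fit to one- or two-exponential decays to give kobs. kcat and KM came from weighted Michaelis–Menten fits across concentrations.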

[2] = variants of: B1; assay: self-cleavage kobs at 2500 uM GlcN6P; higher = faster cleavage; RNA array
Outline: as §1

[3] = variants of: B1; assay: self-cleavage kobs at 10000 uM GlcN6P; higher = faster cleavage; RNA array
Outline: as §1

Variant | self-cleavage kobs at 640 uM GlcN6P [1] [s⁻¹] | self-cleavage kobs at 2500 uM GlcN6P [2] [s⁻¹] | self-cleavage kobs at 10000 uM GlcN6P [3] [s⁻¹]
C10G C11U G41A C70U | < 1e-05 | – | –
C8G C50G A52U | < 1e-05 | – | –
G7A C34A G43A G66U U69G | < 1e-05 | < 1e-05 | –
A15C G29U U55A | 0.000758 ± 0.0002 | – | –
C19A U54C C58A C68G | 9.88e-05 ± 2.4e-05 | 0.00036 ± 0.0001 | –
G40C C67G C70G | < 1e-05 | – | < 1e-05
G7U C8G G38C | < 1e-05 | – | –
G38U C61A | < 1e-05 | – | –
U49G G62C | < 1e-05 | – | –
A12G G26U G38A C68G C71A | 0.000109 ± 2e-05 | 7.22e-05 ± 2.4e-05 | –
G7A A14G G29U C70G | < 1e-05 | < 1e-05 | –
G13U A14G G37A U45A | 9.84e-05 ± 2.1e-05 | 0.000193 ± 3.6e-05 | –
C8U A33C G40C G62A C70U | < 1e-05 | – | –
G29C G37A G38U A52G | < 1e-05 | – | –
A15G C34A C71U | < 1e-05 | < 1e-05 | –
U30A A48C C58A G60A | < 1e-05 | – | –
U31A U65C | 6.63e-05 ± 2.8e-05 | 0.000132 ± 3.7e-05 | 0.000395 ± 0.0001
U30C G32U A64G | 7.24e-05 ± 2.3e-05 | 0.000195 ± 5.7e-05 | –
A6G G38U | < 1e-05 | < 1e-05 | < 1e-05
A12U G44C A48U C58G C67G C71U | < 1e-05 | < 1e-05 | –
C11U G35C U46A U69G | < 1e-05 | < 1e-05 | –
A14U A33C U57C | 0.0103 ± 0.004 | – | –

Variant | self-cleavage kobs at 640 uM GlcN6P [1] [s⁻¹] | self-cleavage kobs at 2500 uM GlcN6P [2] [s⁻¹] | self-cleavage kobs at 10000 uM GlcN6P [3] [s⁻¹]
A42C A52U A64G | < 1e-05 | < 1e-05 | –
U45C U54G U56A | 0.000123 ± 2.3e-05 | 0.000428 ± 0.00012 | 0.000928 ± 0.00017
A36C G51U C70G | 0.000181 ± 5.1e-05 | 4.65e-05 ± 1.9e-05 | –
G41C C50U G59U | < 1e-05 | – | –
G13C C34G G35C A52C | < 1e-05 | < 1e-05 | –
C11G A14U A52U C68G | 0.000115 ± 3.6e-05 | – | –
G32A U57G U69G | 0.000252 ± 0.00011 | – | –
C8G C16U U57A | < 1e-05 | < 1e-05 | –
U30G A48U U65A U69G C70U | 4.35e-05 ± 2e-05 | – | –
G32U C58A C67A | 7.59e-05 ± 1.8e-05 | 0.000241 ± 4.9e-05 | –
C8G A39U U46G U69G | < 1e-05 | < 1e-05 | –
G13C A39C A42U | < 1e-05 | – | –
A6G C8G C11G G13U C50G C61A C71U | 0.00556 ± 0.0017 | 0.000121 ± 5.1e-05 | –
U30G U45A G59C | < 1e-05 | < 1e-05 | –
G35A U65C U69C | < 1e-05 | – | –
A52G U54A C68U | 6.73e-05 ± 2e-05 | – | –
C58U U69A | 6.22e-05 ± 2.6e-05 | – | –
A12C A14G G60U | < 1e-05 | – | –
A14G C34U U54G C58G U69G | 0.000551 ± 0.0002 | – | –
C8A G13A G37U G59C C68G | 0.000781 ± 0.00025 | – | –
A33C A53U G59A U69G | 0.000208 ± 8.8e-05 | – | –
A39U G43U C50U | < 1e-05 | < 1e-05 | –

Variant | self-cleavage kobs at 640 uM GlcN6P [1] [s⁻¹] | self-cleavage kobs at 2500 uM GlcN6P [2] [s⁻¹] | self-cleavage kobs at 10000 uM GlcN6P [3] [s⁻¹]
G7U A14G G40U | < 1e-05 | < 1e-05 | –
C68A U69G | 9.62e-05 ± 3.5e-05 | – | –
A42C U65G U69G | 0.000819 ± 0.00019 | 0.00302 ± 0.00061 | 0.00402 ± 0.001
A48G U55C G59C | < 1e-05 | < 1e-05 | –
G43C G51A C67U | < 1e-05 | – | –
G7U A36C A42C G66C | < 1e-05 | – | –
A15G G44C G59U | < 1e-05 | < 1e-05 | –
A15C A33C G59C | < 1e-05 | < 1e-05 | –
C10U C16U G32A C50G | 0.000327 ± 0.00015 | 9.98e-05 ± 3.8e-05 | –
G7C A15U U45A | < 1e-05 | < 1e-05 | –
G29U G37U G51C C68U C71G | 4.89e-05 ± 1.7e-05 | – | –
A14G A42G G59C | < 1e-05 | – | –
A6G A15G A42G | 0.000137 ± 4.7e-05 | – | –
G7C U30G A64G | < 1e-05 | – | –
C10U A52C C58G | < 1e-05 | < 1e-05 | –
G32U A33U U56G | < 1e-05 | – | –
G9C G38U U45C | < 1e-05 | – | –
U30C C34A | < 1e-05 | – | < 1e-05
G35A G44A | < 1e-05 | < 1e-05 | < 1e-05
C8U G13A G35A G38A G63A C68U | 0.001 ± 0.00031 | – | –
A33C A52C | < 1e-05 | < 1e-05 | –
U31C G37A G44U A48U C50A U65G | < 1e-05 | – | –

Variant | self-cleavage kobs at 640 uM GlcN6P [1] [s⁻¹] | self-cleavage kobs at 2500 uM GlcN6P [2] [s⁻¹] | self-cleavage kobs at 10000 uM GlcN6P [3] [s⁻¹]
G44C A48U C50A | < 1e-05 | – | –
A12U C16A C50A A64G | < 1e-05 | – | –
C11G G60U A64U | < 1e-05 | < 1e-05 | –
C10A G13C C61G G66A C70A | 0.000102 ± 4.5e-05 | – | –
A14G C50G G51C C61U U69A | 0.000136 ± 6.5e-05 | – | –
A33C G35C A42G G51U C70G | < 1e-05 | < 1e-05 | –
C8G A15G C16U U45G U49A | < 1e-05 | < 1e-05 | –
A6C C34A G41C C68A | < 1e-05 | < 1e-05 | –
C11U G41U U45C | < 1e-05 | – | –
G29C A33C C34G G38C A52G | < 1e-05 | – | –
G37A G43U G62U G66C C67A | < 1e-05 | < 1e-05 | < 1e-05
A14G G35A G43A C61U | < 1e-05 | – | –
C8A U69A | 0.00169 ± 0.00074 | – | –
C10G G60U G63U | < 1e-05 | – | –
A12G G13U U47G A53U G66A | < 1e-05 | – | –
C34A G35A A42G | < 1e-05 | < 1e-05 | –
G13A A39U U55C | 4.33e-05 ± 1.4e-05 | 0.000128 ± 2.9e-05 | –
A42G C58A A64U | < 1e-05 | < 1e-05 | –
G9U G59C G63C C70U | < 1e-05 | – | –
A36C G37A A64C G66A | < 1e-05 | – | –
C8U A33U U46G A53G U55A | < 1e-05 | < 1e-05 | –
C11G G44U C50G G62C | < 1e-05 | < 1e-05 | –

Variant | self-cleavage kobs at 640 uM GlcN6P [1] [s⁻¹] | self-cleavage kobs at 2500 uM GlcN6P [2] [s⁻¹] | self-cleavage kobs at 10000 uM GlcN6P [3] [s⁻¹]
A15U G66C C68A | 8.24e-05 ± 3.9e-05 | 6.09e-05 ± 2.8e-05 | –
A39U G44U U47C G51U | < 1e-05 | – | –
G29U U45C U55G | 3.35e-05 ± 1.5e-05 | 7.82e-05 ± 1.1e-05 | –
A6C C16U G40C U47C G60U | < 1e-05 | < 1e-05 | –
U31G C58G A64U | < 1e-05 | – | –
U30G C50U A64G G66U | < 1e-05 | < 1e-05 | –
G9C A53C C70U | < 1e-05 | < 1e-05 | –
U46G U57C G60U | < 1e-05 | – | –
G29U U31G U47G C71A | 9.8e-05 ± 3.6e-05 | – | –
G7U G43U C67G | < 1e-05 | – | –
G7U A33U G37U G63A | < 1e-05 | < 1e-05 | –
U49G C50U G66U C70U | 8.76e-05 ± 3.9e-05 | – | –
G62U G63U G66C | < 1e-05 | < 1e-05 | –
G7U C8A C10U U46C A52U | < 1e-05 | – | –
A36C G60C | < 1e-05 | – | –
A15U U30A C68G | 9.94e-05 ± 2.9e-05 | – | –
G32C A33G A42U U45G U57C A64C C71A | < 1e-05 | < 1e-05 | –
A15G U56A C61G | < 1e-05 | – | –
A39U C58A A64U | < 1e-05 | < 1e-05 | –
G13C A48C C68G | < 1e-05 | – | –
U45C U47C | 0.000179 ± 5.5e-05 | 0.000515 ± 0.00013 | –
G13C C16G G41A | < 1e-05 | – | –

Variant | self-cleavage kobs at 640 uM GlcN6P [1] [s⁻¹] | self-cleavage kobs at 2500 uM GlcN6P [2] [s⁻¹] | self-cleavage kobs at 10000 uM GlcN6P [3] [s⁻¹]
C8U G9A G29U C58U | < 1e-05 | < 1e-05 | –
G37A A48C U55G | < 1e-05 | – | –
U46G C50U C67U C68A U69G | 0.00024 ± 9.9e-05 | – | 4.36e-05 ± 1.5e-05
A12C U47C U65C | < 1e-05 | – | –
G7A A48G A64U C70U | < 1e-05 | – | –
G7C A12G A36C | < 1e-05 | – | –
A12U G32A G41C G62U C68U | < 1e-05 | < 1e-05 | –
A12U C16G G32A | 9.86e-05 ± 2.9e-05 | 0.000137 ± 4.8e-05 | –
G37A U45C | 5.03e-05 ± 1.6e-05 | 6.95e-05 ± 1.3e-05 | 0.000173 ± 4.9e-05
U56G U57G G66U | < 1e-05 | < 1e-05 | –
A15G A48G | 4.16e-05 ± 1.4e-05 | 0.000216 ± 4e-05 | 8.59e-05 ± 1.3e-05
A12C U30A U56A | 0.000365 ± 0.00012 | 0.00105 ± 0.00026 | 0.00357 ± 0.00086
C16U G43C C71A | < 1e-05 | < 1e-05 | –
G9U A15U A42G G63C U69G | < 1e-05 | < 1e-05 | –
U46G G63A C70G | 5.25e-05 ± 2.2e-05 | – | –
A12C A14C U31G | 0.00206 ± 0.00061 | 0.00423 ± 0.0015 | –
G9A G35A A48C C50G | < 1e-05 | < 1e-05 | –
C11G G13U C50G G60U C61G | 5.02e-05 ± 2.4e-05 | – | –
A33U U45C C50A | < 1e-05 | < 1e-05 | –
U56C U57C | 7.5e-05 ± 2.2e-05 | 8.12e-05 ± 1.7e-05 | –
G29C G59U C71U | < 1e-05 | – | –
G29U A48U A53U G63A | < 1e-05 | < 1e-05 | –
